# B1: major vault protein MVP, as in intact vault particles purified from rat liver (natural protein, rat (endogenous in rat liver), UniProt Q62667 1-861, looked up)
# chain: MATEEAIIRIPPYHYIHVLDQNSNVSRVEVGPKTYIRQDNERVLFAPVRMVTVPPRHYCIVANPVSRDTQSSVLFDITGQVRLRHADQEIRLAQDPFPLYPGEVLEKDITPLQVVLPNTALHLKALLDFEDKNGDKVMAGDEWLFEGPGTYIPQKEVEVVEIIQATVIKQNQALRLRARKECFDREGKGRVTGEEWLVRSVGAYLPAVFEEVLDLVDAVILTEKTALHLRALQNFRDLRGVLHRTGEEWLVTVQDTEAHVPDVYEEVLGVVPITTLGPRHYCVILDPMGPDGKNQLGQKRVVKGEKSFFLQPGERLERGIQDVYVLSEQQGLLLKALQPLEEGESEEKVSHQAGDCWLIRGPLEYVPSAKVEVVEERQAIPLDQNEGIYVQDVKTGKVRAVIGSTYMLTQDEVLWEKELPSGVEELLNLGHDPLADRGQKGTAKPLQPSAPRNKTRVVSYRVPHNAAVQVYDYRAKRARVVFGPELVTLDPEEQFTVLSLSAGRPKRPHARRALCLLLGPDFFTDVITIETADHARLQLQLAYNWHFELKNRNDPAEAAKLFSVPDFVGDACKAIASRVRGAVASVTFDDFHKNSARIIRMAVFGFEMSEDTGPDGTLLPKARDQAVFPQNGLVVSSVDVQSVEPVDQRTRDALQRSVQLAIEITTNSQEAAAKHEAQRLEQEARGRLERQKILDQSEAEKARKELLELEAMSMAVESTGNAKAEAESRAEAARIEGEGSVLQAKLKAQALAIETEAELERVKKVREMELIYARAQLELEVSKAQQLANVEAKKFKEMTEALGPGTIRDLAVAGPEMQVKLLQSLGLKSTLITDGSSPINLFSTAFGLLGLGSDGQPPAQK
# Molecular target: the molecule itself
# Test: crystal structure
protein,measurement,value
B1,stoichiometry N,78
